Numbered stars: 1 amine (or outer) side, 2 acyl side, 3 side chain; on linkers, the order of the positions; unused ones are H or OH. Square brackets hold non-standard residues; d marks the D form. Ends that are not written are not given here. X2 = 2‑amino‑1‑O‑methyl‑2‑deoxy‑alpha‑D‑glucopyranuronic acid, CO[C@H]1O[C@H](C(=O)[*:2])[C@@H](O)[C@H](O)[C@H]1N[*:1]; 2Furoyl(5-aminomethyl) = O=C(c1ccc(CN[*:1])o1)[*:2]; Aib = CC(C)(N)C(=O)O
target: GLP-1 receptor; assay: cell-based or functional assay

Row | Binder | EC50, Receptor Functional assay (intracellular cAMP in CHO/GLP-1R cells) [nM]
1 | H[2Furoyl(5-aminomethyl)]GTFTSDVSSYLEGQAAKEFIAWLVKGR-NH2 (N-terminus assumed; SMILES CC[C@H](C)[C@H](NC(=O)[C@H](Cc1ccccc1)NC(=O)[C@H](CCC(=O)O)NC(=O)[C@H](CCCCN)NC(=O)[C@H](C)NC(=O)[C@H](C)NC(=O)[C@H](CCC(N)=O)NC(=O)CNC(=O)[C@H](CCC(=O)O)NC(=O)[C@H](CC(C)C)NC(=O)[C@H](Cc1ccc(O)cc1)NC(=O)[C@H](CO)NC(=O)[C@H](CO)NC(=O)[C@@H](NC(=O)[C@H](CC(=O)O)NC(=O)[C@H](CO)NC(=O)[C@@H](NC(=O)[C@H](Cc1ccccc1)NC(=O)[C@@H](NC(=O)CNC(=O)c1ccc(CNC(=O)[C@@H](N)Cc2c[nH]cn2)o1)[C@@H](C)O)[C@@H](C)O)C(C)C)C(=O)N[C@@H](C)C(=O)N[C@@H](Cc1c[nH]c2ccccc12)C(=O)N[C@@H](CC(C)C)C(=O)N[C@H](C(=O)N[C@@H](CCCCN)C(=O)NCC(=O)N[C@@H](CCCNC(=N)N)C(N)=O)C(C)C) [Seq ID No. 08] | 0.601
2 | HXEGTFTSDXSSYLEGQAAKEFIXWLVKGRG (Xaa1 at position 2 is furan aminoacid (5-aminomethyl-furan-2 carboxylic acid); Xaa2 at position 10 and Xaa3 at position 24 are dialkylated aminoacid (alpha-aminoisobutyric acid); C-terminal amide (Gly-NH2)) [Seq ID No. 09] | 1
3 | H[2Furoyl(5-aminomethyl)]GTFTSD[Aib]SSYLEGQAAKEFI[Aib]WLVKGRG-NH2 (N-terminus assumed; SMILES CC[C@H](C)[C@H](NC(=O)[C@H](Cc1ccccc1)NC(=O)[C@H](CCC(=O)O)NC(=O)[C@H](CCCCN)NC(=O)[C@H](C)NC(=O)[C@H](C)NC(=O)[C@H](CCC(N)=O)NC(=O)CNC(=O)[C@H](CCC(=O)O)NC(=O)[C@H](CC(C)C)NC(=O)[C@H](Cc1ccc(O)cc1)NC(=O)[C@H](CO)NC(=O)[C@H](CO)NC(=O)C(C)(C)NC(=O)[C@H](CC(=O)O)NC(=O)[C@H](CO)NC(=O)[C@@H](NC(=O)[C@H](Cc1ccccc1)NC(=O)[C@@H](NC(=O)CNC(=O)c1ccc(CNC(=O)[C@@H](N)Cc2c[nH]cn2)o1)[C@@H](C)O)[C@@H](C)O)C(=O)NC(C)(C)C(=O)N[C@@H](Cc1c[nH]c2ccccc12)C(=O)N[C@@H](CC(C)C)C(=O)N[C@H](C(=O)N[C@@H](CCCCN)C(=O)NCC(=O)N[C@@H](CCCNC(=N)N)C(=O)NCC(N)=O)C(C)C) [Seq ID No. 10] | 3.38
4 | HXGTFTSDVSSYLEGQAAKEFIAWLVKXR (Xaa1 at position 2 is furan aminoacid (5-aminomethyl-furan-2 carboxylic acid); Xaa2 at position 28 is dialkylated aminoacid (alpha-aminoisobutyric acid); C-terminal amide (Arg-NH2)) [Seq ID No. 11] | 0.102
5 | H[2Furoyl(5-aminomethyl)]GTFTSDVLSYQEGQAAKLFIEWLVKGR-NH2 [Seq ID No. 12] | 2.24
6 | H[2Furoyl(5-aminomethyl)]EGTFTSDVSSYLEGQAAKEFIAWLVKGRG-NH2 [Seq ID No. 01] | 0.103
7 | H[2Furoyl(5-aminomethyl)]GTFTSDVSSYLEGQAAKEFIAWLVKGRG-NH2 (N-terminus assumed; SMILES CC[C@H](C)[C@H](NC(=O)[C@H](Cc1ccccc1)NC(=O)[C@H](CCC(=O)O)NC(=O)[C@H](CCCCN)NC(=O)[C@H](C)NC(=O)[C@H](C)NC(=O)[C@H](CCC(N)=O)NC(=O)CNC(=O)[C@H](CCC(=O)O)NC(=O)[C@H](CC(C)C)NC(=O)[C@H](Cc1ccc(O)cc1)NC(=O)[C@H](CO)NC(=O)[C@H](CO)NC(=O)[C@@H](NC(=O)[C@H](CC(=O)O)NC(=O)[C@H](CO)NC(=O)[C@@H](NC(=O)[C@H](Cc1ccccc1)NC(=O)[C@@H](NC(=O)CNC(=O)c1ccc(CNC(=O)[C@@H](N)Cc2c[nH]cn2)o1)[C@@H](C)O)[C@@H](C)O)C(C)C)C(=O)N[C@@H](C)C(=O)N[C@@H](Cc1c[nH]c2ccccc12)C(=O)N[C@@H](CC(C)C)C(=O)N[C@H](C(=O)N[C@@H](CCCCN)C(=O)NCC(=O)N[C@@H](CCCNC(=N)N)C(=O)NCC(N)=O)C(C)C) [Seq ID No. 02] | 0.043
8 | H[2Furoyl(5-aminomethyl)]EGTFTSDVSSYLEGQAAKEFIAWLVKGR-NH2 [Seq ID No. 03] | 0.061
9 | H[2Furoyl(5-aminomethyl)]EGTFTSD[Aib]SSYLEGQAAKEFI[Aib]WLVKGR-NH2 (N-terminus assumed; SMILES CC[C@H](C)[C@H](NC(=O)[C@H](Cc1ccccc1)NC(=O)[C@H](CCC(=O)O)NC(=O)[C@H](CCCCN)NC(=O)[C@H](C)NC(=O)[C@H](C)NC(=O)[C@H](CCC(N)=O)NC(=O)CNC(=O)[C@H](CCC(=O)O)NC(=O)[C@H](CC(C)C)NC(=O)[C@H](Cc1ccc(O)cc1)NC(=O)[C@H](CO)NC(=O)[C@H](CO)NC(=O)C(C)(C)NC(=O)[C@H](CC(=O)O)NC(=O)[C@H](CO)NC(=O)[C@@H](NC(=O)[C@H](Cc1ccccc1)NC(=O)[C@@H](NC(=O)CNC(=O)[C@H](CCC(=O)O)NC(=O)c1ccc(CNC(=O)[C@@H](N)Cc2c[nH]cn2)o1)[C@@H](C)O)[C@@H](C)O)C(=O)NC(C)(C)C(=O)N[C@@H](Cc1c[nH]c2ccccc12)C(=O)N[C@@H](CC(C)C)C(=O)N[C@H](C(=O)N[C@@H](CCCCN)C(=O)NCC(=O)N[C@@H](CCCNC(=N)N)C(N)=O)C(C)C) [Seq ID No. 04] | 0.072
10 | HGEGTFTSDXSSYLEGQAAKEFIXWLVKGR (Xaa1 at position 10 and Xaa2 at position 24 are dialkylated aminoacid (alpha-aminoisobutyric acid); C-terminal amide (Arg-NH2)) [Seq ID No. 05] | 0.083
11 | H[X2]EGTFTSDVSSYLEGQAAKEFIAWLVKGR-NH2 [Seq ID No. 06] | 0.838
12 | H[X2]GTFTSDVSSYLEGQAAKEFIAWLVKGR-NH2 (N-terminus assumed; SMILES CC[C@H](C)[C@H](NC(=O)[C@H](Cc1ccccc1)NC(=O)[C@H](CCC(=O)O)NC(=O)[C@H](CCCCN)NC(=O)[C@H](C)NC(=O)[C@H](C)NC(=O)[C@H](CCC(N)=O)NC(=O)CNC(=O)[C@H](CCC(=O)O)NC(=O)[C@H](CC(C)C)NC(=O)[C@H](Cc1ccc(O)cc1)NC(=O)[C@H](CO)NC(=O)[C@H](CO)NC(=O)[C@@H](NC(=O)[C@H](CC(=O)O)NC(=O)[C@H](CO)NC(=O)[C@@H](NC(=O)[C@H](Cc1ccccc1)NC(=O)[C@@H](NC(=O)CNC(=O)[C@H]1O[C@H](OC)[C@H](NC(=O)[C@@H](N)Cc2c[nH]cn2)[C@@H](O)[C@@H]1O)[C@@H](C)O)[C@@H](C)O)C(C)C)C(=O)N[C@@H](C)C(=O)N[C@@H](Cc1c[nH]c2ccccc12)C(=O)N[C@@H](CC(C)C)C(=O)N[C@H](C(=O)N[C@@H](CCCCN)C(=O)NCC(=O)N[C@@H](CCCNC(=N)N)C(N)=O)C(C)C) [Seq ID No. 07] | 0.056
